This passage reports Kd, koff and kon results from patent US20130130268A1 (published 2013).

The assay deals with T1, His-tagged PDGFR alpha (aminoacids 1-834 of human PDGFR alpha fused to a 6×histidine tag) (human, UniProt P16234 24-834).
T1 construct: Complete extracellular and transmembrane regions plus part of the intracellular domain; Expressed in HeLa cells, purified from lysates and immobilized on the IAsys biosensor; The cDNA encodes residues 1-834; also called immobilized His-tagged PDGFR alpha; truncated conformer of PDGFR alpha
Description: IAsys optical biosensor, immobilized His-tagged PDGFR alpha. How it is done: A detailed characterization of rHumaab interaction with human PDGFR alpha was performed on an optical biosensor, using as a molecular bait a homemade truncated conformer of this receptor containing the complete extracellular and transmembrane regions joined to a poly-histidine tail (HIS tag) replacing part of the intracellular domain, and serving both as an anchor to the biosensor surface and as a spacer. Preservation of proper folding of the immobilized receptor into a naive-like conformation was verified by monitoring the interaction with its natural binding partner (PDGF-BB) and with two mouse monoclonal antibodies specific for conformational PDGFR alpha epitopes (FIG. 6a). Using this approach, both kinetics and equilibrium parameters of the interaction between PDGF-BB, each rHumaab and PDGFR alpha were determined. […] Additionally, the analysis of association and dissociation rate constants for soluble ligands binding to PDGFR alpha, further defined the mechanistic properties of the macromolecular recognition process. […] Conversely, differences in equilibrium constants among rHumaab were reflected by corresponding differences in dissociation rate constants (kdiss=, 0.035 s⁻¹, 0.02 s⁻¹, and 0.003 s⁻¹, respectively for Vk13B8, Vk16F4 and Vlambda16F4).

What is called Kd is the equilibrium constant for the complex coming apart. High values mean a looser complex, low ones a tighter complex. By koff is commonly meant the rate constant with which the complex falls apart. A lower koff goes with a long-lived complex. Usually kon stands for the second-order rate constant of association. Read a low kon as slower complex formation.

T1 sequence (P16234 other isoform, or with tags, fused parts or gaps): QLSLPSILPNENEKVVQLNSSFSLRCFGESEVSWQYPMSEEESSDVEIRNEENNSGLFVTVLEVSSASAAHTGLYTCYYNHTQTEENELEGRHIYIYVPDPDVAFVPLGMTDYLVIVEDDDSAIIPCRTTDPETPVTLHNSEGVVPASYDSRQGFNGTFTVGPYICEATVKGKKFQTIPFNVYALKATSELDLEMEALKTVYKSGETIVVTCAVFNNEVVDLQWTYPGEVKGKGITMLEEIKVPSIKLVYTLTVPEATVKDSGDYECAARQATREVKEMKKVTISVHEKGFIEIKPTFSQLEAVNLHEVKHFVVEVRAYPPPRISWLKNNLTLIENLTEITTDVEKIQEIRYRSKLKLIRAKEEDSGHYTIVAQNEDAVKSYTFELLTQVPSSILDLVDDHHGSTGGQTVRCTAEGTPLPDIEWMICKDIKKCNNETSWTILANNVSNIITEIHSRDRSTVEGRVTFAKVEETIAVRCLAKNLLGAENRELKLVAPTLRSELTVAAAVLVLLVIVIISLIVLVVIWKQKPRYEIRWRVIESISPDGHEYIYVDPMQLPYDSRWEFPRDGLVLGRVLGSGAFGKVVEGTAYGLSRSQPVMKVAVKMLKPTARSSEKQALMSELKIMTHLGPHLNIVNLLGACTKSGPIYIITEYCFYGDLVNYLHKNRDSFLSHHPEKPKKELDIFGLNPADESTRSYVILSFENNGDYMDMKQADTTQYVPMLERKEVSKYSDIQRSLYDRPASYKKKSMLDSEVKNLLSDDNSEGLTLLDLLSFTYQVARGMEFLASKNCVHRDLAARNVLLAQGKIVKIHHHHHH

B1: Vlambda16F4 rHumaab (antibody, human IgG1, V domains shown)
VH: GLVKPLETLSLTCSVSGGSVSDGSYFWNWIRQPPGKGLEWIGYAYSRGTTNYSPSLKGRITISVDKSKNQISLKLTSVTPADTAVYYCARDSFEIWGQGTMVTV
VL: QSALTQPASVSGSPGQSITISCTGTSSDVGGYNYVSWYQHHPGKAPKLMIYEVSHRPSGVSNRFSGSKSGNTASLTISGLQAEDEADYYCSSYTSSSHVVFGGGTKLTVL
notes: Tested as a whole human IgG1 made in CHO cells (pDR12 vector, b12 constant regions, with Fc)
Molecule B1 yielded a Kd of 16.6 nM and an off-rate (koff) of 0.003 s⁻¹.

B2: Vk16F4 rHumaab (antibody, human IgG1, V domains shown)
VH: B1 VH
VL: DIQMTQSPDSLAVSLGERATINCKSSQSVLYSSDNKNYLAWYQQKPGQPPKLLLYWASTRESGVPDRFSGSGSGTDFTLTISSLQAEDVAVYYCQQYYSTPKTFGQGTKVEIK
notes: Tested as a whole human IgG1 made in CHO cells (pDR12 vector, b12 constant regions, with Fc); also called Vκ16F4; rHumaab VK16F4
With B2, the Kd turned out to be 71.4 nM and the koff was 0.02 s⁻¹.

B3: Vk13B8 rHumaab (antibody, human IgG1, V domains shown)
VH: B1 VH
VL: DIQMTQSPSSLSASVGDRVTITCRASQGISNYLAWFQQKPGKAPKSLIYAASSLQSGVPSKFSGSGSGTDFTLTISSLQPEDFATYYCQQYNSFPYTFGQGTKLEIK
notes: Tested as a whole human IgG1 made in CHO cells (pDR12 vector, constant regions of antibody b12, with Fc); also called Vκ13B8; recombinant human monoclonal auto-antibody Vk13B8
For the molecule B3, binding was characterised by a dissociation constant (Kd) of 184 nM and the koff is 0.035 s⁻¹.

B4: human PDGF-BB (ligand)
chain 1: SLGSLTIAEPAMIAECKTRTEVFEISRRLIDRTNANFLVWPPCVEVQRCSGCCNNRNVQCRPTQVQLRPVQVRKIEIVRKKPIFKKATVTLEDHLACKCETVAAARPVT
chain 2: B4 chain 1
notes: The name BB means a homodimer of B chains
B4: the Kd came out at 0.23 nM and the kon is 3e+07 M⁻¹ s⁻¹.
